The values below come from patent US20250388666A1 (BRIGHAM AND WOMEN S HOSPITAL, published 2025).

T1: CEACAM1 (Sino Biological) (human, UniProt P13688 35-428, limits assumed)
T1 construct: may be the same as CEACAM1-HIS; also called hCEACAM1; biotinylated soluble CEACAM1
T1 sequence: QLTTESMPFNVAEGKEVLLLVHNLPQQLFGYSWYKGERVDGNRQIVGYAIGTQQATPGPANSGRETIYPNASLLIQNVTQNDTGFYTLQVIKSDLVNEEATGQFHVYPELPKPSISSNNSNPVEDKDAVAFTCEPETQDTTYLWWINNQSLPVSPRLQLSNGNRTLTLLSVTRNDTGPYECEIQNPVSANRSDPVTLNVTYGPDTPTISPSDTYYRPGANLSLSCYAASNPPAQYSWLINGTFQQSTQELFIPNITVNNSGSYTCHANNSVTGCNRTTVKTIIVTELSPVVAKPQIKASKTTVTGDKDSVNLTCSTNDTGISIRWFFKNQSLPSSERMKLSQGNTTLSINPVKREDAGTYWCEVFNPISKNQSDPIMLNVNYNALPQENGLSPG

T2: CEACAM5 (Sino Biological) (human, UniProt P06731 35-685)
T2 construct: also called hCEACAM5
T2 sequence (looked up): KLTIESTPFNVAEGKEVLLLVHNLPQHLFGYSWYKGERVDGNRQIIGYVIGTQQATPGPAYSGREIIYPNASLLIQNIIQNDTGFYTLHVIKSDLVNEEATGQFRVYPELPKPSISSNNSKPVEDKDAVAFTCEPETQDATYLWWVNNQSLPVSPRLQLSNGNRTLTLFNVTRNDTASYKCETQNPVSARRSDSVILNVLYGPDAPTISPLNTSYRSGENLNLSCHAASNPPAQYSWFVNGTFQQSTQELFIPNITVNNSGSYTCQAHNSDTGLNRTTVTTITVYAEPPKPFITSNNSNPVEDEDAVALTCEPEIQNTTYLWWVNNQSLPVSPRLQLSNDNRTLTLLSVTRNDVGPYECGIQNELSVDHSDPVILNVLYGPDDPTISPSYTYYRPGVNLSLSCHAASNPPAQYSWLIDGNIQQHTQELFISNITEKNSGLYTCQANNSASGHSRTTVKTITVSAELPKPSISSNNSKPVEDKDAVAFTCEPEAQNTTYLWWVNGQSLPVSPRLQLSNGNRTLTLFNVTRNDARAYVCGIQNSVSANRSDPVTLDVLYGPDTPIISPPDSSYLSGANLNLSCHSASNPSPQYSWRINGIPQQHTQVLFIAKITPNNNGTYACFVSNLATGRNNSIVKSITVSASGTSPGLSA

T3: CEACAM6 (Sino Biological) (human, UniProt P40199 35-320)
T3 construct: also called hCEACAM6
T3 sequence (looked up): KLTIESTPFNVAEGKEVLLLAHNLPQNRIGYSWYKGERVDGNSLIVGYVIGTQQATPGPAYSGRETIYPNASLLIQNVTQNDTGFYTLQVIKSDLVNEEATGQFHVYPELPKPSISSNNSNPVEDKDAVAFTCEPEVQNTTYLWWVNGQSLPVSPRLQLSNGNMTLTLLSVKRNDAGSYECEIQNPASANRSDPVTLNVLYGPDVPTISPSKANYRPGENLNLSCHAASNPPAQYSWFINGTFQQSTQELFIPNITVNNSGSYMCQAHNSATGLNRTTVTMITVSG

T4: CEACAM3 (Sino Biological) (human, UniProt P40198 35-155, limits assumed)
T4 construct: also called hCEACAM3
T4 sequence (looked up): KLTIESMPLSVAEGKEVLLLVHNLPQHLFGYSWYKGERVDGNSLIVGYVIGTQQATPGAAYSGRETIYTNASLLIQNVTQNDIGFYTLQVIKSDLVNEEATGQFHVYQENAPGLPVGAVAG

B1: He17/L16 (antibody, IgG4, V domains shown)
VH: EVQLLESGGGLVQPGGSLRLSCAASGFSFSDYYLYWVRQAPGKGLEWVATISVGGGQTSYADSVKGRFTISRDNSKNTLYLQMNSLRAEDTAMYYCTRARTYGPAWFAYWGQGTLVTVSS
VL: DIVMTQSPDSLAVSLGERATINCKSSQSLLNSANQKNYLAWYQQKPGQPPKLLIYFASTRESGVPDRFSGSGSGTDFTLTISSLQAEDVAVYYCQSHYPYPFTFGGGTKVEIK
notes: IgG4 S241P, kappa; also called 17 / 16
B2: He9/L17 (antibody, IgG4, V domains shown)
VH: B1 VH with T97A, R100M, T101Y
VL: B1 VL with F102Y
notes: IgG4 S241P, kappa; also called He9 / 17
B3: He14/L1 (antibody, IgG4, V domains shown)
VH: B1 VH with A99G, R100L, T101Y, A105S, F107V
VL: B1 VL with Y100F, P101Y, F102Y
notes: IgG4 S241P, kappa; also called He14 / 1
B4: He9/L4#2 (antibody, IgG4, V domains shown)
VH: B1 VH with T97A, R100M, T101Y
VL: B1 VL with F102Y
notes: IgG4 S241P, kappa
B5: He4/L16 (antibody, IgG4, V domains shown)
VH: B1 VH with R100L, T101Y
VL: B1 VL
notes: IgG4 S241P, kappa; also called He4 / 16

Substitutions are numbered along the chain they refer to. In names and notes the source's numbering stands.

The first test concerns the target T1, CEACAM1 (Sino Biological). Kind of test: SPR single-cycle. In a few lines: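 Humanized affinity-matured IgGs from crude supernatants captured on Protein A to ~100 RU, with CEACAM1 analyte injected at 25–100 nM (three-point, two-fold) in HBS-P+ without regeneration. 200 s association per injection, 300 s single dissociation; reference-channel and blank subtracted.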
In the case of B1, the Kd is 67 nM and the “fold better than Parent (KD)” value is 2.36 fold.
The like results for B2 were, in that order, 33 nM and 4.88 fold.
The like results for B3 were, in that order, 69 nM and 2.3 fold.
The like results for B4 were, in that order, 57 nM and 9.71 fold.
Turning to B5, the affinity, expressed as Kd, was 52 nM and the “fold better than Parent (KD)” value came out at 3.04 fold.

Another test deals with T2, CEACAM5 (Sino Biological). In words: binding ELISA on plate-coated CEACAM (0.5 µg/mL); antibody at 1.67, 0.062 and 0.0069 µg/mL; signal as % of parent IgG on CEACAM1 at 1.67 µg/mL on the same plate.
Turning to B2, the binding result is on record as “binds”.

Another test concerns the target T3, CEACAM6 (Sino Biological). Described as above.
For the molecule B1, the binding result was “no binding (tested: 1.67 µg/mL)”.

A further test has as its target T2, CEACAM5 (Sino Biological). The description is as above. This is another data set of the same source.
On to B4, for which the binding result is “binds”.

The target in a further test is T4, CEACAM3 (Sino Biological). The description is as above.
Turning to B1, the binding result was “no binding (tested: 1.67 µg/mL)”.
For B5, the binding result is given as “no binding (tested: 1.67 µg/mL)”.

The target in another test is T3, CEACAM6 (Sino Biological). The description is as above. This is another data set of the same source.
As to B3, the binding result is on record as “no binding (tested: 1.67 µg/mL)”.

A further test has as its target T4, CEACAM3 (Sino Biological). The description is as above. This is another data set of the same source.
In the case of B3, the binding result is on record as “no binding (tested: 1.67 µg/mL)”.

The target of a further test is T1, CEACAM1 (Sino Biological). In words: SPR multi-cycle, IgG on Protein A. The protocol:
Multi-cycle kinetics analysis was performed on the twelve lead antibodies using a Biacore T200 instrument running Biacore T200 Evaluation Software V3.0.1 (Uppsala, Sweden) to establish an accurate affinity for CEACAM1. The purified antibodies were diluted to a concentration of […] in HBS-P+. At the start of each cycle, each antibody was captured on the Protein A surface to give an RL of ˜100 RU. Following capture, the surface was allowed to stabilize. Kinetic data was obtained using a flow rate of […] to minimize any potential mass transfer effects. For the kinetics analysis, CEACAM1 was used. Multiple repeats of the blank ([…]) and a repeat of a single concentration of the analyte were programmed into the kinetic run in order to check the stability of both the surface and analyte over the kinetic cycles. For kinetic analysis, a two-fold dilution range was selected from 200 to 3.125 nM CEACAM1. The association phase of CEACAM1 was monitored for 275 seconds and the dissociation phase was measured for 250 seconds. Regeneration of the Protein A surface was conducted using two injections of 10 mM glycine-HCL pH 1.5 at the end of each cycle.
The signal from the reference channel Fc1 was subtracted from that of Fc2, Fc3 and Fc4 to correct for differences in non-specific binding to a reference surface, and a global Rmax parameter was used in the 1-to-1 binding model. The relative KD was calculated by dividing the KD of the RSB02 Parent by that of the humanized and affinity matured variants on the same chip.
B1: binding was put at a Kd of 25.8 nM, the koff was 0.00795 s⁻¹, the kon was 308000 M⁻¹ s⁻¹ and the “relative KD to Parent” value was determined as 3.31 ratio.
The like results for B2 were, in that order, 40.9 nM, 0.0015 s⁻¹, 36700 M⁻¹ s⁻¹ and 4.55 ratio.
The like results for B3 were, in that order, 67.3 nM, 0.00724 s⁻¹, 108000 M⁻¹ s⁻¹ and 1.83 ratio.
The like results for B4 were, in that order, 33.7 nM, 0.0013 s⁻¹, 38600 M⁻¹ s⁻¹ and 3.89 ratio.
Turning to B5, the dissociation constant (Kd) came out at 38.9 nM, the koff came to 0.00146 s⁻¹, the kon was found to be 37500 M⁻¹ s⁻¹ and the “relative KD to Parent” value came to 3.16 ratio.

What is called Kd is the equilibrium constant for the complex coming apart. The koff is the rate constant with which the complex falls apart. Low readings indicate a long-lived complex, high ones a short-lived complex. One may read the kon as a measure of how fast the partners come together. A lower kon goes with slow association.
